The values below come from PMC6048055, “O2-inducible H2O2-forming NADPH oxidase is responsible for the hyper O2 sensitivity of Bifidobacterium longum subsp. infantis” (Scientific Reports, 2018).

Series [1] has as its system NC(=O)C1=CN([C@@H]2O[C@H](COP(=O)(O)OP(=O)(O)OC[C@H]3O[C@@H](n4cnc5c(N)ncnc54)[C@H](O)[C@@H]3O)[C@@H](O)[C@H]2O)C=CC1. The series can be described thus: purified protein. The following applies: O2 as electron acceptor (air saturated), 50 mM potassium phosphate pH 6.5, 37 °C, apparent Km.
The test system of series [2] is NC(=O)C1=CN([C@@H]2O[C@H](COP(=O)(O)OP(=O)(O)OC[C@H]3O[C@@H](n4cnc5c(N)ncnc54)[C@H](OP(=O)(O)O)[C@@H]3O)[C@@H](O)[C@H]2O)C=CC1. Description: purified protein. Particulars: O2 as electron acceptor (air saturated), 50 mM potassium phosphate pH 6.5, 37 °C, apparent Km.
For a further series, the target named is T1, NADPH oxidase (NPOX) (Bifidobacterium longum, UniProt A0ACD7UUP8).
T1 construct: gene Blon_2447; native enzyme purified from B. infantis cells; 254 residues; 29 kDa by SDS-PAGE
T1 sequence (A0ACD7UUP8 52-305): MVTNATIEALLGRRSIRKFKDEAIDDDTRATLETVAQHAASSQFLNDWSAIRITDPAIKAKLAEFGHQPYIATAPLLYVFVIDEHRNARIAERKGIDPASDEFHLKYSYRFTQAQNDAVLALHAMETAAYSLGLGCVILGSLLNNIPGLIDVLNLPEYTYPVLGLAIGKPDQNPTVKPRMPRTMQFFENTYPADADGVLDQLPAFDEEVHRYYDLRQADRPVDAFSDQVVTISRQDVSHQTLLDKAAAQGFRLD
Description: HPLC of flavin extracted from purified enzyme; UV-Vis spectrum. In kind it is binding. The following applies: co-purified bound flavin, flavoprotein absorbance maxima […] nm.

Take “NADPH oxidase (NPOX) (Bifidobacterium longum subsp. infantis ATCC 15697 = JCM 1222 = DSM 20088)”: the Km in series [1] was found to be 113.3 ± 7.3 µM; in series [2], 1.38 ± 0.12 µM. Turning to `Cc1cc2nc3c(=O)[nH]c(=O)nc-3n(C[C@H](O)[C@H](O)[C@H](O)COP(=O)(O)O)c2cc1C` [FMN], the “HPLC of flavin extracted from purified enzyme; UV-Vis spectrum” value at NADPH oxidase (NPOX) is “The bound flavin was identified as FMN by HPLC analysis”.
